Data: paper PMC8011926 (Journal of Medicinal Chemistry, 2020)
Where two headings read alike, the source gives them in different places. Non-standard residues stand in square brackets, D forms with d. No end group written: not given here.

Columns and labels:
[1] = target: T1, NOP receptor (NOP-RLuc/Gβ1-RGFP) (Homo sapiens, UniProt P41146); assay: NOP/G protein interaction, BRET assay in membranes; assay type: biochemical; settings: for NOP/G protein pEC50 (CL95%): BRET, membranes (3 μg protein) from HEK293 cells co-expressing NOP-RLuc/Gβ1-RGFP, room temperature, mean of five independent experiments in duplicate, 95% confidence limits; for NOP/G protein α ± sem (intrinsic activity): Emax of ligand / Emax of N/OFQ(1–13)-NH2, mean ± sem of five experiments in duplicate; for NOP/G protein CR (concentration ratio): ratio between EC50 of the ligand and that of the standard agonist N/OFQ(1–13)-NH2
T1 construct: expressed in transfected cells; host or cells: HEK293 (enriched plasma membranes)
Procedure: (§1) For this study, human embryonic kidney (HEK293) cells, permanently co-expressing the different pairs of fusion proteins NOP-RLuc/Gβ1-RGFP and NOP-RLuc/β-arrestin 2-RGFP, and SH-SY5Y cells stably, co-expressing the different pairs of fusion proteins mu-RLuc/Gβ1-RGFP and mu-RLuc/β-arrestin 2-RGFP or delta-RLuc/Gβ1-RGFP and delta-RLuc/β-arrestin 2-RGFP, were used. Cells were prepared and cultured, as described previously.[19],[23] Cells were grown in Dulbecco’s modified Eagle’s medium (DMEM)/HAMS F12 (1:1) supplemented with 10% fetal bovine serum, penicillin G (100 units/mL), streptomycin (100 μg mL^–1), L-glutamine (2 mM), fungizone (1 μg mL^–1), geneticin (G418; 200 μg mL^–1), and hygromycin B (100 μg mL^–1) in a humidified atmosphere of 5% CO2 at 37 °C. For G protein experiments, enriched plasma membrane aliquots from transfected cells were prepared by differential centrifugation; cells were detached with phosphate buffered saline (PBS)/EDTA solution (1 mM, pH 7.4 NaOH), then, after 5 min 500g centrifugation, Dounce-homogenized (30 strokes) in cold homogenization buffer (tris(hydroxymethyl)aminomethane 5 mM, EGTA 1 mM, DTT 1 mM, pH 7.4 HCl) in the presence of sucrose (0.32 M). Three following centrifugations were performed at 10 min 1000g (4 °C), and the supernatants were kept. Two 20 min 24,000g (4 °C) subsequent centrifugations (the second in the absence of sucrose) were performed for separating enriched membranes that, after discarding the supernatant, were kept in ultrapure water at −80 °C.[67] The protein concentration in membrane preparations was determined using the QPRO-BCA kit (Cyanagen Srl, Bologna, IT) and the Ensight (PerkinElmer, Waltham, USA) in the spectrophotometer mode.
(§2) Luminescence in membranes was recorded in 96-well untreated white opaque microplates, while in whole cells, it was recorded in 96-well sterile poly-D-lysine-coated white opaque microplates (PerkinElmer, Waltham, MA, USA) using the luminometer Victor 2030 (PerkinElmer, Waltham, MA, USA). For the determination of receptor/G protein interactions, membranes (3 μg of protein) prepared from cells co-expressing NOP (or mu or delta)/RLuc and Gβ1/RGFP were added to wells in DPBS. For the determination of receptor/β-arrestin 2 interactions, cells co-expressing NOP (or mu or delta)/RLuc and β-arrestin 2/RGFP were plated 24 h before the experiment in poly-D-lysine-treated plates (100,000 cells/well). The cells were prepared for the experiment substituting the medium with PBS with MgCl2 (0.5 mM) and CaCl2 (0.9 mM). Coelenterazine at a final concentration of 5 μM was injected 15 min prior to reading the cell plate. Different concentrations of ligands in 20 μL of PBS–BSA 0.01% were added and incubated 5 min before reading luminescence. […] The BRET ratio was measured 15 min after agonist injection. All experiments were performed at room temperature.
(§3) The pharmacological terminology adopted in this paper is consistent with IUPHAR recommendations.[68] All data are expressed as the mean ± sem of five independent experiments made in duplicate. […] Ligand efficacy was expressed as intrinsic activity (α), calculated as the ratio between the Emax of the ligand and that of the standard agonist. Count per second (CPS) measured for the RGFP and RLuc light emitted using 510(10) and 460(25) filters (PerkinElmer, Waltham, MA), respectively, was used to calculate the BRET ratio. All data are expressed as the stimulated BRET ratio, that is, the ratio between CPS from RGFP and RLuc in the presence of ligands minus the BRET ratio in vehicle-treated wells. […] Concentration–response curves to agonists were fitted to the classical four-parameter logistic nonlinear regression model [drawing 1]
(§4) Curves fitting were performed using PRISM 6.0 (GraphPad Software In., San Diego, USA).

[2] = target: T2, NOP receptor (NOP-RLuc/β-arrestin 2-RGFP) (Homo sapiens, UniProt P41146); assay: NOP/β-arrestin 2 interaction, BRET assay in whole cells; assay type: cell-based; settings: for NOP/β-arrestin 2 pEC50 (CL95%): BRET, whole HEK293 cells co-expressing NOP-RLuc/β-arrestin 2-RGFP, 100,000 cells/well, room temperature, mean of five independent experiments in duplicate, 95% confidence limits; for NOP/β-arrestin 2 α ± sem (intrinsic activity): Emax of ligand / Emax of N/OFQ(1–13)-NH2, mean ± sem of five experiments in duplicate; for NOP/β-arrestin 2 CR (concentration ratio): ratio between EC50 of the ligand and that of the standard agonist N/OFQ(1–13)-NH2
T2 construct: expressed in transfected cells; host or cells: HEK293 (whole cells)
Procedure: as §1, §2, §3, §4

[3] = system: NOP receptor; assay: NOP bias factor, G protein vs β-arrestin 2 (Black–Leff operational model); settings: for BIAS FACTOR: supplementary CSV (molecular formula strings), repeats Tables 1–7 without confidence limits; for bias factor (CL95%), NOP: ΔΔlog(τ/KA) G protein minus β-arrestin 2, N/OFQ(1–13)-NH2 as standard unbiased ligand, positive = toward G protein, mean of at least five experiments
From the text: The concentration–response curves of each compound were fitted to the Black–Leff operational model, described by Nagi and Pineyro[70] [drawing 3] where [A] is the agonist concentration, the maximal response of the system is given by Em, n is a fitting parameter for the slope, the affinity of the agonist is represented by the equilibrium dissociation constant of the agonist–receptor complex (KA), and the efficacy of the agonist is defined by τ. τ and KA are descriptive parameters of intrinsic efficacy and binding affinity and may be directly obtained by fitting the experimental data to the operational equation and can be expressed as “transduction coefficients” log(τ/KA). The relative efficiency of agonists producing activation of any pathways can thus be quantified with a “normalized” transduction coefficient, namely Δlog(τ/KA). Finally, the bias factors were calculated as difference between Δlog(τ/KA) values for a given agonist between the pathways (G protein and β-arrestin 2) [drawing 4]
Bias factors are expressed as the mean of at least five independent experiments, and CL95% are indicated. Biased factor is considered to be statistically different from 0 when 0 is not included in CL95%. α values have been statistically analyzed with one-way analysis of variance (ANOVA) followed by the Dunnett post hoc test for multiple comparisons; P values less than 0.05 were considered to be statistically significant.

[4] = target: N/OFQ peptide (NOP) receptor fused to Renilla luciferase (UniProt P41146)
[5] = target: N/OFQ peptide (NOP) receptor fused to Renilla luciferase (UniProt P41146); remark: listed apart in the source

Chain of N/OFQ peptide (NOP) receptor fused to Renilla luciferase (P41146 whole entry, the tested form may be a part): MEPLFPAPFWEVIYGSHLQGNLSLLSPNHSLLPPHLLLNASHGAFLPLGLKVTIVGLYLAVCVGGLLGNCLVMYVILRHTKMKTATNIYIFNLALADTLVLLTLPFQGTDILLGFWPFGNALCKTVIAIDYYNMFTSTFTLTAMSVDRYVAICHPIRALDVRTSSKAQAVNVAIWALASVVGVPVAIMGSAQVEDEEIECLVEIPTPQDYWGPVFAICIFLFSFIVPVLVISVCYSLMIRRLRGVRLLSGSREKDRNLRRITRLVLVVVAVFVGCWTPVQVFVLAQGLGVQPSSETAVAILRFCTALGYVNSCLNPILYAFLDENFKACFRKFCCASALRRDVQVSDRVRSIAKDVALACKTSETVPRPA
T1 sequence (P41146 whole entry): as the sequence (P41146 whole entry, the tested form may be a part) above
T2 sequence (P41146 whole entry): as the sequence (P41146 whole entry, the tested form may be a part) above

FGGFTGARKSAAK-NH2 [Compound 10, [Ala^12]N/OFQ(1–13)-NH2]
NOP/G protein pEC50 (CL95%) [1]: 7.31 (6.41–8.22) | NOP/G protein α ± sem (intrinsic activity) [1]: 0.91 ± 0.04 | NOP/G protein CR (concentration ratio) [1]: 31 | NOP/β-arrestin 2 pEC50 (CL95%) [2]: 6.85 (6.57–7.14) | NOP/β-arrestin 2 α ± sem (intrinsic activity) [2]: 0.99 ± 0.05 | NOP/β-arrestin 2 CR (concentration ratio) [2]: 26 | BIAS FACTOR [3]: -0.15 | bias factor (CL95%), NOP [3]: –0.15 (−0.78–0.49)

FGGFTGARKSARA-NH2 [Compound 11, [Ala^13]N/OFQ(1–13)-NH2]
NOP/G protein pEC50 (CL95%) [1]: 7.91 (7.24–8.59) | NOP/G protein α ± sem (intrinsic activity) [1]: 0.96 ± 0.06 | NOP/G protein CR (concentration ratio) [1]: 8 | NOP/β-arrestin 2 pEC50 (CL95%) [2]: 7.88 (7.75–8.01) | NOP/β-arrestin 2 α ± sem (intrinsic activity) [2]: 1.03 ± 0.05 | NOP/β-arrestin 2 CR (concentration ratio) [2]: 2 | BIAS FACTOR [3]: -0.48 | bias factor (CL95%), NOP [3]: –0.48 (−1.14–0.18)

LGGFTGARKSARK-NH2 [Compound 23, [Leu^1]N/OFQ(1–13)-NH2]
NOP/G protein pEC50 (CL95%) [1]: 8.19 (7.88–8.51) | NOP/G protein α ± sem (intrinsic activity) [1]: 1.06 ± 0.02 | NOP/G protein CR (concentration ratio) [1]: 3 | NOP/β-arrestin 2 pEC50 (CL95%) [2]: 7.87 (7.69–8.04) | NOP/β-arrestin 2 α ± sem (intrinsic activity) [2]: 1.04 ± 0.06 | NOP/β-arrestin 2 CR (concentration ratio) [2]: 3 | BIAS FACTOR [3]: -0.08 | bias factor (CL95%), NOP [3]: –0.08 (−0.53–0.37)

[Cha^1]N/OFQ(1–13)-NH2 (peptide)
pEC50 for promoting the NOP/G protein interaction (BRET, membranes with NOP-RLuc and Gβ1-RGFP) [4]: 8.93 -log10 M | pEC50 for promoting the NOP/β-arrestin 2 interaction (BRET, cells with NOP-RLuc and β-arrestin 2-RGFP) [4]: 8.28 -log10 M

AGGFTGARKSARK-NH2 [[Ala^1]N/OFQ(1–13)-NH2]
concentration ratio (EC50 of the ligand / EC50 of N/OFQ(1–13)-NH2) for promoting the NOP/G protein interaction (BRET, membranes); concentration–response curve incomplete [5]: 700

B1: [D-Ala^2]N/OFQ(1–13)-NH2 (peptide)
peptide: F[dA]GFTGARKSARK-NH2
modifications: N-terminus assumed
SMILES: C[C@H](NC(=O)CNC(=O)[C@@H](NC(=O)[C@H](Cc1ccccc1)NC(=O)CNC(=O)[C@@H](C)NC(=O)[C@@H](N)Cc1ccccc1)[C@@H](C)O)C(=O)N[C@@H](CCCNC(=N)N)C(=O)N[C@@H](CCCCN)C(=O)N[C@@H](CO)C(=O)N[C@@H](C)C(=O)N[C@@H](CCCNC(=N)N)C(=O)N[C@@H](CCCCN)C(N)=O
pEC50 for promoting the NOP/G protein interaction (BRET, membranes with NOP-RLuc and Gβ1-RGFP) [4]: 7.57 -log10 M | pEC50 for promoting the NOP/β-arrestin 2 interaction (BRET, cells with NOP-RLuc and β-arrestin 2-RGFP) [4]: 7.16 -log10 M

FGGFTAARKSARK-NH2 [[Ala^6]N/OFQ(1–13)-NH2]
pEC50 for promoting the NOP/G protein interaction (BRET, membranes with NOP-RLuc and Gβ1-RGFP) [5]: 7.66 -log10 M | pEC50 for promoting the NOP/β-arrestin 2 interaction (BRET, cells with NOP-RLuc and β-arrestin 2-RGFP) [5]: 7.1 -log10 M

FGGFTGAAKSARK-NH2 [[Ala^8]N/OFQ(1–13)-NH2]
concentration ratio (EC50 of the ligand / EC50 of N/OFQ(1–13)-NH2) for promoting the NOP/G protein interaction (BRET, membranes); concentration–response curve incomplete [5]: 1000

FAGFTGARKSARK-NH2 [[Ala^2]N/OFQ(1–13)-NH2]
pEC50 for promoting the NOP/G protein interaction (BRET, membranes with NOP-RLuc and Gβ1-RGFP) [5]: 6.36 -log10 M

FGGFNGARKSARK-NH2 [[Asn^5]N/OFQ(1–13)-NH2]
pEC50 for promoting the NOP/G protein interaction (BRET, membranes with NOP-RLuc and Gβ1-RGFP) [4]: 8.03 -log10 M | pEC50 for promoting the NOP/β-arrestin 2 interaction (BRET, cells with NOP-RLuc and β-arrestin 2-RGFP) [4]: 7.56 -log10 M

FGGATGARKSARK-NH2 [[Ala^4]N/OFQ(1–13)-NH2]
concentration ratio (EC50 of the ligand / EC50 of N/OFQ(1–13)-NH2) for promoting the NOP/G protein interaction (BRET, membranes); concentration–response curve incomplete [5]: 1000

FGGFTGARKAARK-NH2 [[Ala^10]N/OFQ(1–13)-NH2]
pEC50 for promoting the NOP/G protein interaction (BRET, membranes with NOP-RLuc and Gβ1-RGFP) [5]: 9.25 -log10 M | pEC50 for promoting the NOP/β-arrestin 2 interaction (BRET, cells with NOP-RLuc and β-arrestin 2-RGFP) [5]: 8.43 -log10 M

FGGFTGARKSAAK-NH2 [[Ala^12]N/OFQ(1–13)-NH2]
pEC50 for promoting the NOP/G protein interaction (BRET, membranes with NOP-RLuc and Gβ1-RGFP) [5]: 7.31 -log10 M | pEC50 for promoting the NOP/β-arrestin 2 interaction (BRET, cells with NOP-RLuc and β-arrestin 2-RGFP) [5]: 6.85 -log10 M

FGGWTGARKSARK-NH2 [[Trp^4]N/OFQ(1–13)-NH2]
pEC50 for promoting the NOP/G protein interaction (BRET, membranes with NOP-RLuc and Gβ1-RGFP) [4]: 7.63 -log10 M | pEC50 for promoting the NOP/β-arrestin 2 interaction (BRET, cells with NOP-RLuc and β-arrestin 2-RGFP) [4]: 7.17 -log10 M

FGGFTGARKSARA-NH2 [[Ala^13]N/OFQ(1–13)-NH2]
pEC50 for promoting the NOP/G protein interaction (BRET, membranes with NOP-RLuc and Gβ1-RGFP) [5]: 7.91 -log10 M | pEC50 for promoting the NOP/β-arrestin 2 interaction (BRET, cells with NOP-RLuc and β-arrestin 2-RGFP) [5]: 7.88 -log10 M

FGAFTGARKSARK-NH2 [[Ala^3]N/OFQ(1–13)-NH2]
pEC50 for promoting the NOP/G protein interaction (BRET, membranes with NOP-RLuc and Gβ1-RGFP) [5]: 7.88 -log10 M | pEC50 for promoting the NOP/β-arrestin 2 interaction (BRET, cells with NOP-RLuc and β-arrestin 2-RGFP) [5]: 7.54 -log10 M

FGGFAGARKSARK-NH2 [[Ala^5]N/OFQ(1–13)-NH2]
pEC50 for promoting the NOP/G protein interaction (BRET, membranes with NOP-RLuc and Gβ1-RGFP) [5]: 7.12 -log10 M | pEC50 for promoting the NOP/β-arrestin 2 interaction (BRET, cells with NOP-RLuc and β-arrestin 2-RGFP) [5]: 6.13 -log10 M

FGGFTGARASARK-NH2 [[Ala^9]N/OFQ(1–13)-NH2]
pEC50 for promoting the NOP/G protein interaction (BRET, membranes with NOP-RLuc and Gβ1-RGFP) [5]: 8.14 -log10 M | pEC50 for promoting the NOP/β-arrestin 2 interaction (BRET, cells with NOP-RLuc and β-arrestin 2-RGFP) [5]: 7.77 -log10 M
